B1: Ras-related protein Rab-11B (Homo sapiens), Q15907 (parent)
chain: MGTRDDEYDYLFKVVLIGDSGVGKSNLLSRFTRNEFNLESKSTIGVEFATRSIQVDGKTIKAQIWDTAGQERYRAITSAYYRGAVGALLVYDIAKHLTYENVERWLKELRDHADSNIVIMLVGNKSDLRHLRAVPTDEARAFAEKNNLSFIETSALDSTNVEEAFKNILTEIYRIVSQKQIADRAAHDESPGNNVVDISVPPTTDGQKPNKLQCCQNL
partner: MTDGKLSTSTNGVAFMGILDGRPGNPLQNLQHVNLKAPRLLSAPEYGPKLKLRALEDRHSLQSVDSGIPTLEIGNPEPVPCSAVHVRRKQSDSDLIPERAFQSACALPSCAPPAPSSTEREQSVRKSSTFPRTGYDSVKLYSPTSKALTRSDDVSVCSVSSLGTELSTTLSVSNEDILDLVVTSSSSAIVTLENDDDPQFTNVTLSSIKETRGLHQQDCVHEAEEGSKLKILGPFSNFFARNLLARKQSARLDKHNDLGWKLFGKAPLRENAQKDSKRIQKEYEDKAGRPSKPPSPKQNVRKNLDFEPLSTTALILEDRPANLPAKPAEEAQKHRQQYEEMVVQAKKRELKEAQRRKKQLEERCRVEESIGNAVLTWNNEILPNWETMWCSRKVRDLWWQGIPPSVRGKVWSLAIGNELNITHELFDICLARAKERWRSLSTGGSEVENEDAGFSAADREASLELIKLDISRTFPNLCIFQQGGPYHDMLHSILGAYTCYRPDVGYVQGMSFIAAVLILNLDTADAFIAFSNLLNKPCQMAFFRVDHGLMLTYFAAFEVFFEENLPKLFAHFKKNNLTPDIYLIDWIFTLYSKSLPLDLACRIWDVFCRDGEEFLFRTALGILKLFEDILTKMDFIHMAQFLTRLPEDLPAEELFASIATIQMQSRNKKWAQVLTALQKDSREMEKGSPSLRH

Variants of: B1
Settings: with tbc14_human TBC1D14, Q9P2M4

Row | Variant | effect of a mutation on the interaction
1 | Q70A | increasing interaction strength
2 | S25N | decreasing interaction strength

Reference: IntAct's records for PubMed 22613832
